Substitutions are numbered along the chain they refer to. Blank lines part the entries; values can stand above or below the binder they belong to.
Tests used:
human CD27 (A59T) = target: T1, human CD27 (A59T) (human, UniProt P26842 21-260); test: flow cytometry on transiently transfected CHO-K1 cells
T1 construct: also called hCD27 (A59T); human CD27 variant p.Ala59Thr

Q41A = target: T2, Q41A; test: flow cytometry on CHO-K1 transfectants, cell hatched (loss of binding)
T2 construct: also called hCD27 Q41A
T2 receptor chain: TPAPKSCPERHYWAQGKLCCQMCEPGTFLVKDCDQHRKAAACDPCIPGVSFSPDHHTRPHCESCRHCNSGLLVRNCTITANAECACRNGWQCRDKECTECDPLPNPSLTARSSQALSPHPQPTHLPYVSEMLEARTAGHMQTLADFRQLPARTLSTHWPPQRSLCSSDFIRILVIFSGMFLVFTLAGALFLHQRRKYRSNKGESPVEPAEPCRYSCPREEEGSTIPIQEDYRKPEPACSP
Procedure: (§1) The ability of several anti-hCD27 antibodies to bind to a series of hCD27 alanine mutants was determined using CHO-K1 cells, transiently transfected pCI-neo empty vector, pCI-neo.hCD27 and several pCI-neo.CD27Ala mutant constructs.
(§2) Detached cells were transferred to 96 wells round-bottomed well plates at approximately 1.2×10⁵ cells/well. After spinning down the cells, discarding the supernatants and re-suspending the cells in the residual volume, the primary antibodies were added and incubated for 30 minutes at 4° C. Cells were washed three times with DPBS/BSA 1%, followed by centrifugation, discarding of the supernatants and re-suspension in the residual volume. […] After washing once, antibody binding was detected using the HTS plate reader (FACS Canto II) and FlowJo software for data analysis. Debris, dead cells and doublets were excluded from the analysis. Binding was expressed as the geometric mean of the FITC signal, relative to antibody binding to hCD27, which was set at 100%.

K31A [1] = target: T3, K31A; test: as above
T3 construct: also called hCD27 K31A
T3 receptor chain: T2 receptor chain with K31A, A41Q
Procedure: as §1, §2

D43A [2] = target: T4, D43A; test: as above
T4 construct: also called hCD27 D43A
T4 receptor chain: T2 receptor chain with A41Q, D43A
Procedure: as §1, §2

V30A = target: T5, V30A; test: flow cytometry on CHO-K1 transfectants, left sub-column
T5 construct: also called hCD27 V30A
T5 receptor chain: T2 receptor chain with V30A, A41Q
Procedure: (§3) The hCD27 variants that were tested are listed. Amino acids correspond to the UniProt P26842-1 sequence. Amino acids 1-20 constitute the signal peptide. Binding is expressed as the geometric mean of the FITC signal, relative to antibody binding to hCD27, which was set at 100%.
as §1, §2

D32A = target: T6, D32A; test: as above
T6 construct: also called hCD27 D32A
T6 receptor chain: T2 receptor chain with D32A, A41Q
Procedure: as §3, §1, §2

G16A = target: T7, G16A; test: as above
T7 construct: also called hCD27 G16A
T7 receptor chain: T2 receptor chain with G16A, A41Q
Procedure: as §3, §1, §2

W90A = target: T8, W90A; test: as above
T8 construct: also called hCD27 W90A
T8 receptor chain: T2 receptor chain with A41Q, W90A
Procedure: as §3, §1, §2

V49A = target: T9, V49A; test: as above
T9 construct: also called hCD27 V49A
T9 receptor chain: T2 receptor chain with A41Q, V49A
Procedure: as §3, §1, §2

R87A = target: T10, R87A; test: as above
T10 construct: also called hCD27 R87A
T10 receptor chain: T2 receptor chain with A41Q, R87A
Procedure: as §3, §1, §2

K31A [3] = target: T3, K31A; test: as above
Procedure: as §3, §1, §2

D43A [4] = target: T4, D43A; test: as above
Procedure: as §3, §1, §2

binding result (human CD27 (A59T)): no binding
binding, WT hCD27 = 100 (GM FITC) (Q41A): 33.9%
binding, WT hCD27 = 100 (GM FITC) (K31A [1]): 30.3%
binding, WT hCD27 = 100 (GM FITC) (D43A [2]): 31%
B1: hCD27.15-6B (antibody, human IgG4 S228P, kappa, V domains shown)
VH: QVQLVQSGAEVKKPGASVKVSCKASGFIIKATYMHWVRQAPGQRLEWMGRIDPANGETKYDPKFQVRVTITADTSASTAYMELSSLRSEDTAVYYCARYAWYFDVWGQGTLVTVSS
VL: DIQMTQSPSSLSASVGDRVTITCRASENIYSFLAWYQQKPGKAPKLLIYHAKTLAEGVTSRFSGSGSGTDFTLTISSLQPEDSATYYCQHYYGSPLTFGQGTRLEIKR
notes: also called hCD27.15 (humanized 6B); humanized hCD27.15 (human IgG4, Clone 6B)

binding, WT hCD27 = 100 (GM FITC) (V30A): 170%
binding, WT hCD27 = 100 (GM FITC) (D32A): 113%
binding, WT hCD27 = 100 (GM FITC) (G16A): 94.8%
binding, WT hCD27 = 100 (GM FITC) (W90A): 126%
binding, WT hCD27 = 100 (GM FITC) (V49A): 147%
binding, WT hCD27 = 100 (GM FITC) (R87A): 153%
binding, WT hCD27 = 100 (GM FITC) (K31A [3]): 203%
binding, WT hCD27 = 100 (GM FITC) (D43A [4]): 194%
B2: hCD27.131A (mouse parental 131A) (antibody, mouse IgG1, V domains shown)
VH: QIQLVQSGPELKKPGETVKISCKASGYTFTNYGMNWVKQAPGKGLKWMGWINTNTGEPTYAEEFKGRFAFSLETSATTAYLQINNLKNEDTATYFCAREGDAMDYWGQGTSVTVSS
VL: QIVLTQSPAIMSASPGEKVTMTCSASSSVSYMHWYQQKSGTSPKRWIYDTSKLASGVPARFSGSGSGTSYSLTISSMEAEDAATYYCQQWNSYPFTFGSGTKLEIK
notes: Mouse IgG1 antibody; also called mouse hCD27.131A

Source: patent US20180086841A1 (Merck Sharp & Dohme, published 2018)
